T1: human DLL3 protein (human, UniProt Q9NYJ7 27-492, limits assumed)
T1 construct: Soluble human DLL3 protein used in BLI; also called Delta-like protein 3
T1 sequence (looked up): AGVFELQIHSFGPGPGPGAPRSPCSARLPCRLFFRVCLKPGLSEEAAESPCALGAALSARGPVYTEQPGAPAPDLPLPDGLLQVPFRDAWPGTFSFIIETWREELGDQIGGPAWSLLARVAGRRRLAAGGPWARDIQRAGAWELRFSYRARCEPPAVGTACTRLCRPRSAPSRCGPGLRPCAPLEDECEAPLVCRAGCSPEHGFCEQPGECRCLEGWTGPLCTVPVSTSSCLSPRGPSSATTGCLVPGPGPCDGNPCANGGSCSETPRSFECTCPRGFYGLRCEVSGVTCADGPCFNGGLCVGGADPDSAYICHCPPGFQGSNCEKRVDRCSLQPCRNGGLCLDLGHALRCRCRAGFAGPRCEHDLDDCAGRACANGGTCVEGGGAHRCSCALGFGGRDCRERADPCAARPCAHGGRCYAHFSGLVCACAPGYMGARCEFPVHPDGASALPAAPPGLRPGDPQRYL

T2: DLL3 on the surface of DLL3-positive cell lines SHP77 and NCI-H82 (UniProt Q9NYJ7 27-618, limits assumed)
T2 construct: whole, on cells; The cell line of each number is named under assay
T2 sequence (looked up): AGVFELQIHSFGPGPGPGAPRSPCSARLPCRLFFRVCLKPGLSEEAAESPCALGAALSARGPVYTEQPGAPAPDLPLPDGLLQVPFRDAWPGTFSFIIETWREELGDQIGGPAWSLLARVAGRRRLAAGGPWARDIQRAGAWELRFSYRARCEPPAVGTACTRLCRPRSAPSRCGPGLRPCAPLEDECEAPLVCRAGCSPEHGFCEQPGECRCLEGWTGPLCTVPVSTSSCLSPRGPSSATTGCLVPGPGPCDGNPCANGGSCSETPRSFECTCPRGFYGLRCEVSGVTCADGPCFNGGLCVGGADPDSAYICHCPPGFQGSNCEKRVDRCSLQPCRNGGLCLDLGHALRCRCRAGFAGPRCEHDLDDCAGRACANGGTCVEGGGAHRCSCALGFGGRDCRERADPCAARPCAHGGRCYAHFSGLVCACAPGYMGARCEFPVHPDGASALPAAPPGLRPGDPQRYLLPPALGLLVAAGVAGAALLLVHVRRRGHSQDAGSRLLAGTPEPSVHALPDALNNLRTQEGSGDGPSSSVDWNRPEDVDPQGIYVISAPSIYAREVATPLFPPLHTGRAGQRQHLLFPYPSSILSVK


Columns and labels:
human DLL3 protein [1] = target: T1, human DLL3 protein; test: BLI, scFv-Fc against human DLL3 protein
[2] = target: T2, DLL3 on the surface of DLL3-positive …; test: flow cytometry on SHP77 cells
[3] = target: T2, DLL3 on the surface of DLL3-positive …; test: flow cytometry on NCI-H82 cells
human DLL3 protein [4] = target: T1, human DLL3 protein; test: BLI, scFv-Fc against human DLL3 protein; koff below the instrument detection limit

| Binder | Kd (human DLL3 protein [1]) | koff (human DLL3 protein [1]) | kon (human DLL3 protein [1]) | EC50 [2] | EC50 [3] | koff (human DLL3 protein [4]) |
| --- | --- | --- | --- | --- | --- | --- |
| AMG757 (anti-DLL3 scFv from Amgen's patent, positive control) scFv-human IgG Fc (Fc fusion, not shown: human IgG Fc) EIVLTQSPGTLSLSPGERVTLSCRASQRVNNNYLAWYQQRPGQAPRLLIYGASSRATGIPDRFSGSGSGTDFTLTISRLEPEDFAVYYCQQYDRSPLTFGCGTKLEIKGGGGSGGGGSGGGGSQVQLQESGPGLVKPSETLSLTCTVSGGSISSYYWSWIRQPPGKCLEWIGYVYYSGTTNYNPSLKSRVTISVDTSKNQFSLKLSSVTAADTAVYYCASIAVTGFYFDYWGQGTLVTVSS | 0.164 nM | 3.03e-05 s⁻¹ | 185000 M⁻¹ s⁻¹ | 0.089 µg/mL | 0.082 µg/mL | – |
| Ab.55 scFv-human IgG Fc (Fc fusion, Tested as scFv-human IgG Fc; not shown: human IgG Fc) EVVMTQSPLSLPVTLGQPASVSCRSSQSLLYSDGNTYLIWFQQRPGQSPRRLLYKLSTRDSGVPDRFSGSGSGTDFTLKISRVEAEDVGIYYCMQVTHWPYTFGQGTKLEIKGGGGSGGGGSGGGGSQVQLRESGPGLVKPSETLSLTCTVSGDSLKNSYWGWIRQPPGKGLEWIGYIYYSGTSSYNPSLESRVTFSADTSKNQFSLKLSSVTAADTAVYYCSREGSFDVWGRGTLVTVSS | 0.197 nM | 6.31e-05 s⁻¹ | 320000 M⁻¹ s⁻¹ | 0.11 µg/mL | 0.15 µg/mL | – |
| Ab.63 scFv-human IgG Fc (Fc fusion, Tested as scFv-human IgG Fc; not shown: human IgG Fc) QIVLTQSPGTLSLSPGERATLSCRASQSVTRGYLAWYQQKPGQAPRLLFYGASNRATDIPDRFSGSGSGTDFTLIISRLEPEDFAVYYCQQYGISPLTFGGGTKVEIKGGGGSGGGGSGGGGSQVQLHESGPGLVKPSETLSLTCTVSGASISSYYWSWIRQPPGKGLEWIGYIYYSGTTNFNPSLKSRVTISVDTSKNQFSLRLSSVTTADTAVYYCANLALTGFHFDYWGQGTLVTVSS | 1.41 nM | 0.000597 s⁻¹ | 424000 M⁻¹ s⁻¹ | 0.011 µg/mL | 0.012 µg/mL | – |
| Ab.67 scFv-human IgG Fc (Fc fusion, Tested as scFv-human IgG Fc; not shown: human IgG Fc) DVVVTQSPLSLPVTLGQPASISCRSSQSLVYSDGNTYLNWFQQRPGQSPRRLVYQVSNRDSGVPDRFSGSGSGTDFTLKISGMEAEDAGVYYCMQGTHWPHTFGQGTKLEIKGGGGSGGGGSGGGGSEVHLVESGGGLVQPGGSLKLSCAASGFIFSGSSMHWVRQASGKGLEWIGRIRNKANNYATSYGASVQGRFTMSRDDSKNTAYLQMNSLKAEDTAVYYCTYLSGEFWGQGTLVTVSS | 0.34 nM | 0.000182 s⁻¹ | 534000 M⁻¹ s⁻¹ | 0.14 µg/mL | 0.11 µg/mL | – |
| Ab.71 scFv-human IgG Fc (Fc fusion, Tested as scFv-human IgG Fc; not shown: human IgG Fc) DIGMTQSPDSLAVSLGERATINCKSSQNVLPNSNKKHYLSWYQQKPGQPPKLLIYLASTRASGVPDRFSGSGSGTDFTLTISSLQAEDVAVYYCQQYYSSPPEWTFGQGTKVEIKGGGGSGGGGSGGGGSQVQLVESGGGVVQPGRSLRLSCVASGFTFSNCGMHWVRQAPGKGLEWVAIIWYDGNIKYYGDSVKGRFTISRDNSKNTLYLQMNSLRVEDTAVYYCGRHDYGGNSFDYWGQGTLVTVSS | 0.299 nM | 0.000177 s⁻¹ | 591000 M⁻¹ s⁻¹ | 0.039 µg/mL | 0.027 µg/mL | – |
| Ab.73 scFv-human IgG Fc (Fc fusion, Tested as scFv-human IgG Fc; not shown: human IgG Fc) DVVMTQSPLSLPVTLGQPASISCRSSQSLGYSDGDTYLIWFLQRPGQSPRRLIYKVSNRDSGVPDRFSGSGSGTDFTLKISRVEAEDVGVYYCMQGTHWPYTFGQGTKLEIKGGGGSGGGGSGGGGSQVQVQESGPGLVKPSETLSLTCTVSTGSFSSHYWSWIRQPPGKSLEYIGYIYYTGTTNYNPSLKSRVTISVDTSKNQFSLNVNSVTAADTAVYYCAREGTFDIWGQGTMVTVSS | < 0.005 nM | – | 193000 M⁻¹ s⁻¹ | 0.077 µg/mL | 0.042 µg/mL | < 1e-06 s⁻¹ |
| Ab.76 scFv-human IgG Fc (Fc fusion, not shown: human IgG Fc) EIVMTQSPATLSVSPGERATLSCRASQSVSSNLAWYRQKPGQAPRLFIYGAYTRATDIPARFSGSGSGTEFTLTISSLQSEDFAVYYCQQYNNWPFTFGPGTKVDIKGGGGSGGGGSGGGGSEVQMVESGGVLVQPGMSLRLSCAASGFTFDDYAMHWVRQPPGKGLEWVSVISWNSGSIGYADSVKGRFTISRDNAKNSLYLQMNSLRAEDTAFYYCAKDLEGGVMDFDYWGQGTLVTVSS | 1.22 nM | 0.000288 s⁻¹ | 236000 M⁻¹ s⁻¹ | 2.6 µg/mL | 0.38 µg/mL | – |
| Ab.79 scFv-human IgG Fc (Fc fusion, Tested as scFv-human IgG Fc; not shown: human IgG Fc) DVVMTQSPLSLPVTLGQPASISCRSSQSLVYNDGNTYLTWFQQWPGQSPRRLIYKVSNRDSGVPDRFSGSGSGTDFTLKISRVEAEDIGVYHCMQGTHWPYTFGQGTKLEIKGGGGSGGGGSGGGGSQVQVQESGPGLVKSSETLSLTCTVSGGSFRSYYWSWIRQPPGKGLDYIGYMYYSGTTNYNPSLTNRVSISVDTSKNQFSLKLNSVTAADTAVYYCAREGTFDIWGQGTVVTVSS | 0.487 nM | 0.000186 s⁻¹ | 382000 M⁻¹ s⁻¹ | 0.073 µg/mL | 0.064 µg/mL | – |

From EP4714978A1 (Neukio Biotherapeutics (Shangai ) Co., Ltd., dated 2026)
